This is an account of results in article PMC7114241.

Some targets named below: Ac-ESTLQ-H; Ac-NSFSQ-H; Ac-NSTSQ-H.
Holding throughout (test): FRET

B1: SARS-CoV main protease (Mpro), P0C6X7 (protein)
chain: SGFRKMAFPSGKVEGCMVQVTCGTTTLNGLWLDDTVYCPRHVICTAEDMLNPNYEDLLIRKSNHSFLVQAGNVQLRVIGHSMQNCLLRLKVDTSNPKTPKYKFVRIQPGQTFSVLACYNGSPSGVYQCAMRPNHTIKGSFLNGSCGSVGFNIDYDCVSFCYMHHMELPTGVHAGTDLEGKFYGPFVDRQTAQAAGTDTTITLNVLAWLYAAVINGDRWFLNRFTTTLNDFNLVAMKYNYEPLTQDHVDILGPLSAQTGIAVLDMCAALKELLQNGMNGRTILGSTILEDEFTPFDVVRQCSGVTFQ
In general, Ki refers to a dissociation constant, usually derived from enzyme kinetics or from competition with a known ligand. As to B1, the Ki with Ac-ESTLQ-H stood at 8.27 µM; with Ac-NSFSQ-H, 72.7 µM; in the test with Ac-NSTSQ-H it was 41 µM.
